Values of other authors, collected in patent US7744870B1, “ST receptor binding compounds and methods of using the same” (Thomas Jefferson University, priority 1993, dated 2010).
Ends that are not written are not given here.

Columns and labels:
[1] = molecular target: T1, ST receptor (Homo sapiens, UniProt P25092); conditions: reported in cited literature; cited from earlier work
T1 construct: a preparation of ST receptors (e.g. intestinal membranes from rat intestine, human intestine, T84 cells); from tissue; host or cells: human intestinal membranes
T1 sequence (P25092 24-1073): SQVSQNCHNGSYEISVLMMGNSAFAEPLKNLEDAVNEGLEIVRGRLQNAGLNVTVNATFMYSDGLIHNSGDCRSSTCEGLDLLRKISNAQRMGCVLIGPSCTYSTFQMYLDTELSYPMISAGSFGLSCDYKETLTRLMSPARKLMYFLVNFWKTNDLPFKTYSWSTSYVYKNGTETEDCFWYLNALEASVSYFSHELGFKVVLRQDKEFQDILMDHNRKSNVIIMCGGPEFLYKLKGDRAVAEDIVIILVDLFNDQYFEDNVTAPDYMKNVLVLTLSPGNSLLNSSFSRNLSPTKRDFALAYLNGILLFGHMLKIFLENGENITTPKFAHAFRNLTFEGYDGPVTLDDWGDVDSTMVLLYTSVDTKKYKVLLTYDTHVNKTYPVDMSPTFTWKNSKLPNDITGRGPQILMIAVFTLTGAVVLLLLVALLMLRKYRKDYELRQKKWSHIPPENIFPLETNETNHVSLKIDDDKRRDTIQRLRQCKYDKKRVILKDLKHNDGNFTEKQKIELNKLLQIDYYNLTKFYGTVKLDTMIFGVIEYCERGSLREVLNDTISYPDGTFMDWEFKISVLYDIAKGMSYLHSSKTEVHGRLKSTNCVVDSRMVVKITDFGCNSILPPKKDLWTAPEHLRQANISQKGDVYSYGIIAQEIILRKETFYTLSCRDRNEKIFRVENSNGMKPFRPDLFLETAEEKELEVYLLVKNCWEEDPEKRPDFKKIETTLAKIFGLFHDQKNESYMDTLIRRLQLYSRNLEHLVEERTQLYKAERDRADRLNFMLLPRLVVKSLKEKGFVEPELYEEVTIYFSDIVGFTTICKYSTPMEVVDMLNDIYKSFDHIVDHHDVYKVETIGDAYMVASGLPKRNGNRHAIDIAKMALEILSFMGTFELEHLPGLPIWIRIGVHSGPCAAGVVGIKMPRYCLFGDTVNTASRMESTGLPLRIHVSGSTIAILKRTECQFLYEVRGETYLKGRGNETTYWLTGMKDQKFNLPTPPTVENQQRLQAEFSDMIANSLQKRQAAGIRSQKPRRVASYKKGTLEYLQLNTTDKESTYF

[2] = molecular target: guanylate cyclase (Homo sapiens, UniProt P25092); conditions: relative to native ST; cited from earlier work
Sequence of guanylate cyclase (P25092 24-1073): as above

| Substance | binds to the ST receptor [1] | activates guanylate cyclase at a level less than native ST [2] |
| --- | --- | --- |
| SEQ ID NO:47: 16 amino acid peptide derived from V. cholerae (IDCCICCNPACFGCLN; listed as Vibrio cholerae) | binds to the ST receptor | – |
| SEQ ID NO:48: 18 amino acid peptide derived from Y. enterocolitica (SSDWDCCDVCCNPACAGC; listed as Yersinia enterocolitica) | binds to the ST receptor | – |
| guanylin (PGTCEICAYAACTGC; ends and bridges not checked; cysteine pairing not given here; UniProt Q02747 101-115, looked up) | binds to ST receptors | 10- to 100 fold |
